In patent US20020111304A1 (SCHEPENS EYE RESEARCH INSTITUTE, published 2002):

Legend:
Assay in all cases: co-immunoprecipitation with anti-αPDGFR antibody from F cells, Western blot
[1] = target: T1, phospholipase C-γ1 (PLCγ) (UniProt Q62077 2-1302, limits assumed)
T1 construct: Endogenous protein that co-precipitates with the receptor from F cell lysates; also called phospholipase C-gamma
T1 sequence (looked up): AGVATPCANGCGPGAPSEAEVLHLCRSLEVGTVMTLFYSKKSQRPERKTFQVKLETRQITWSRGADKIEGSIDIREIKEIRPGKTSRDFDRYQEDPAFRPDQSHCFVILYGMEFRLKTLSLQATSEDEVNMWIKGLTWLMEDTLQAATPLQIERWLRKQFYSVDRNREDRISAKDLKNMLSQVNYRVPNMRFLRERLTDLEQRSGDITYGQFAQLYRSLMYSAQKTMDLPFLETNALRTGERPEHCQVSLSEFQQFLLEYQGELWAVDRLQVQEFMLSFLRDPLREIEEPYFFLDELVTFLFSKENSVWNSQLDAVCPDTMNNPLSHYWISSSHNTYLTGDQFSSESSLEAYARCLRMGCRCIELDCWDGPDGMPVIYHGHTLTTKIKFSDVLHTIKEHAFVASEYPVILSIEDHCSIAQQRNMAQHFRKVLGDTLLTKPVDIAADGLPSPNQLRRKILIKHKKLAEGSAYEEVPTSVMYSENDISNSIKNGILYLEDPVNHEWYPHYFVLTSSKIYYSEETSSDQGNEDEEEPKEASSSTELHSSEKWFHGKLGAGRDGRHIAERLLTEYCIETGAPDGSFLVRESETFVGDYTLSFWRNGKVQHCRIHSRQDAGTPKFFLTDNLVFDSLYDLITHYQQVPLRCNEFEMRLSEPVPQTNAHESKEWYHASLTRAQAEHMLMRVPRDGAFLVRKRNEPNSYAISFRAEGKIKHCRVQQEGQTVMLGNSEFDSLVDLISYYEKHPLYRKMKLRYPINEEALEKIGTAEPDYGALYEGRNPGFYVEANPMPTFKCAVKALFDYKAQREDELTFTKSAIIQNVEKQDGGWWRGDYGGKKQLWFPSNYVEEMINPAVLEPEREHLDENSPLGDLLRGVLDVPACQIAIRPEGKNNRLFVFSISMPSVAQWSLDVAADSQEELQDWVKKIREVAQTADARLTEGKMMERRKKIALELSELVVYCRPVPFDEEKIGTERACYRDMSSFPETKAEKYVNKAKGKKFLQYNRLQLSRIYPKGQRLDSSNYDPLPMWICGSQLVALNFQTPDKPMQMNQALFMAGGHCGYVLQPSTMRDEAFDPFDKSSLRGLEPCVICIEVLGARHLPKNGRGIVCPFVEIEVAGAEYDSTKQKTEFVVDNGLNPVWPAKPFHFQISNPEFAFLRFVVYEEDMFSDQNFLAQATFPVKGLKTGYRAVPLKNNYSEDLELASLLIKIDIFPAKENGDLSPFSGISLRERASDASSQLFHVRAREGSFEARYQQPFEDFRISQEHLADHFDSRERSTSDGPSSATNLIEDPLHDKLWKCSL
Excerpt: (§1) Portions of the membrane that contained the proteins of the appropriate molecular mass were immunoblotted for PLCγ, the regulatory subunit of PI3K (p85), or SHP-2. Crude rabbit anti-p85 antibody is from Dr. A. Toker (Beth Israel Hospital/Harvard Medical School, Boston, Mass.). The monoclonal antibodies against PLCγ and SHP-2 were purchased from Upstate Biotechnology Inc.

[2] = target: T2, tyrosine phosphatase SHP-2 (UniProt P35235 2-593, limits assumed)
T2 construct: Endogenous protein that co-precipitates with the receptor from F cell lysates
T2 sequence (looked up): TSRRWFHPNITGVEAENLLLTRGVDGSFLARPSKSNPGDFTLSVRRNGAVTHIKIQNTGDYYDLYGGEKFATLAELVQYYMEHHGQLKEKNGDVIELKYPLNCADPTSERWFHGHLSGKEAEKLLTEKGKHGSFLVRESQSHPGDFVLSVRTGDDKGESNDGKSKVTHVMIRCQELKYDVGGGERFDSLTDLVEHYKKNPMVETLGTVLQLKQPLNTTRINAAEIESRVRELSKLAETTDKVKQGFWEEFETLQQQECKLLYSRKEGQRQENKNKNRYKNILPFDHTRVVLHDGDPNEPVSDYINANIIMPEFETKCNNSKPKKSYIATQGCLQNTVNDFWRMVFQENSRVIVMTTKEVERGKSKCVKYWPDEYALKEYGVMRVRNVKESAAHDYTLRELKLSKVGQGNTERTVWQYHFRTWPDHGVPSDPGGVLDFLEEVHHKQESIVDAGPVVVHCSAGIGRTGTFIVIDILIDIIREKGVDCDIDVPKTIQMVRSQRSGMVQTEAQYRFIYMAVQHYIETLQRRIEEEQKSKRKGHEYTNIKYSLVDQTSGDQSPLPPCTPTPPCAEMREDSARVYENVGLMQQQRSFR
Excerpt: as §1

[3] = target: T3, regulatory subunit of PI3K (p85) (UniProt P26450 2-724)
T3 construct: The catalytic subunit is not described; also called phosphoinositide 3-kinase
T3 sequence (P26450 2-724): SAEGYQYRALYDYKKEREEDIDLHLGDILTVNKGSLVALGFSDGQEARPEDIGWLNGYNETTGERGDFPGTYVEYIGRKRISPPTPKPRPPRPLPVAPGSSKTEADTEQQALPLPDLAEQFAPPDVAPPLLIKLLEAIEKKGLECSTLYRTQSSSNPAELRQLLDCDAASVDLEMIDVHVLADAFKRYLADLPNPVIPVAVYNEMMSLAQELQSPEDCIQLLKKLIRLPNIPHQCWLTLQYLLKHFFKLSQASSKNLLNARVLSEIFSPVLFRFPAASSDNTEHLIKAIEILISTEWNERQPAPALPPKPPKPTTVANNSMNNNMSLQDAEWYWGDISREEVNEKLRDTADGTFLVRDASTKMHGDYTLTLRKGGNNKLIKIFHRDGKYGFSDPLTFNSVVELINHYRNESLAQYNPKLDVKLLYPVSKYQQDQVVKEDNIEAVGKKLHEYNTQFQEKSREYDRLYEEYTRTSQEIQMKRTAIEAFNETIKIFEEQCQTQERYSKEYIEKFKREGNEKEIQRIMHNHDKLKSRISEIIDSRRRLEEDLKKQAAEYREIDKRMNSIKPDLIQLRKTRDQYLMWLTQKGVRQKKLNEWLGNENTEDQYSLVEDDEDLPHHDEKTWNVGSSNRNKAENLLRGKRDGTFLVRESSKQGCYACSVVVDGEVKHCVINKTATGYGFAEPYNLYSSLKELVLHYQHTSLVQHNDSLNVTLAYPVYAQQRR
Excerpt: as §1

Measured: binding result

B1: αPDGFR mutant F7 (Tyr to Phe substitution at 572, 574, 720, 731, 742, 988, and 1018) (receptor)
chain: QLSLPSILPNENEKVVQLNSSFSLRCFGESEVSWQYPMSEEESSDVEIRNEENNSGLFVTVLEVSSASAAHTGLYTCYYNHTQTEENELEGRHIYIYVPDPDVAFVPLGMTDYLVIVEDDDSAIIPCRTTDPETPVTLHNSEGVVPASYDSRQGFNGTFTVGPYICEATVKGKKFQTIPFNVYALKATSELDLEMEALKTVYKSGETIVVTCAVFNNEVVDLQWTYPGEVKGKGITMLEEIKVPSIKLVYTLTVPEATVKDSGDYECAARQATREVKEMKKVTISVHEKGFIEIKPTFSQLEAVNLHEVKHFVVEVRAYPPPRISWLKNNLTLIENLTEITTDVEKIQEIRYRSKLKLIRAKEEDSGHYTIVAQNEDAVKSYTFELLTQVPSSILDLVDDHHGSTGGQTVRCTAEGTPLPDIEWMICKDIKKCNNETSWTILANNVSNIITEIHSRDRSTVEGRVTFAKVEETIAVRCLAKNLLGAENRELKLVAPTLRSELTVAAAVLVLLVIVIISLIVLVVIWKQKPRYEIRWRVIESISPDGHEFIFVDPMQLPYDSRWEFPRDGLVLGRVLGSGAFGKVVEGTAYGLSRSQPVMKVAVKMLKPTARSSEKQALMSELKIMTHLGPHLNIVNLLGACTKSGPIYIITEYCFYGDLVNYLHKNRDSFLSHHPEKPKKELDIFGLNPADESTRSFVILSFENNGDFMDMKQADTTQFVPMLERKEVSKYSDIQRSLYDRPASYKKKSMLDSEVKNLLSDDNSEGLTLLDLLSFTYQVARGMEFLASKNCVHRDLAARNVLLAQGKIVKICDFGLARDIMHDSNYVSKGSTFLPVKWMAPESIFDNLYTTLSDVWSYGILLWEIFSLGGTPYPGMMVDSTFYNKIKSGYRMAKPDHATSEVYEIMVKCWNSEPEKRPSFYHLSEIVENLLPGQYKKSYEKIHLDFLKSDHPAVARMRVDSDNAFIGVTYKNEEDKLKDWEGGLDEQRLSADSGFIIPLPDIDPVPEEEDLGKRNRHSSQTSEESAIETGSSSSTFIKREDETIEDIDMMDDIGIDSSDLVEDSFL
notes: Expressed in F cells and immunoprecipitated from lysates
no binding: [1] | [2] | [3]
